Data taken from US6570069B1, “Nucleic acids encoding plant inhibitors of apoptosis and transgenic cells and plants expressing them” (priority 2000, dated 2003).

T1: pro-caspase-9 (Homo sapiens, UniProt P55211)
T1 construct: host or cells: cell-free in vitro transcription/translation
T1 sequence (P55211 1-416): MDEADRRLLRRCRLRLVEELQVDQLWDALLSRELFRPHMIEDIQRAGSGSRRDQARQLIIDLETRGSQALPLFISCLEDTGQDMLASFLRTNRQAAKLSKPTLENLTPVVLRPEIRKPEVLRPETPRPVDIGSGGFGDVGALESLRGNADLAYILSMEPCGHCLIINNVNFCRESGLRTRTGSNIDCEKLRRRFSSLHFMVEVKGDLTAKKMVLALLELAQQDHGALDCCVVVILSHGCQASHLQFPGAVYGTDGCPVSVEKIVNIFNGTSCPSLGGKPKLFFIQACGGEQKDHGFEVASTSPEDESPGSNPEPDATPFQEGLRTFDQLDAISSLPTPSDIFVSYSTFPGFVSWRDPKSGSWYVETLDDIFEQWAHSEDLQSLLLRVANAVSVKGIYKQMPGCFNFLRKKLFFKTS

T2: caspase-3 (Homo sapiens, UniProt P42574)
T2 construct: His6 (C); made in house
T2 sequence (P42574 29-175 limits assumed): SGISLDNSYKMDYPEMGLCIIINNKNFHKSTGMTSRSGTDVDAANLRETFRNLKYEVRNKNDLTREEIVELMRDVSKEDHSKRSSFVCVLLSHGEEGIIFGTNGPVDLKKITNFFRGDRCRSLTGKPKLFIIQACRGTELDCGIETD
T2 sequence (P42574 176-277 limits assumed): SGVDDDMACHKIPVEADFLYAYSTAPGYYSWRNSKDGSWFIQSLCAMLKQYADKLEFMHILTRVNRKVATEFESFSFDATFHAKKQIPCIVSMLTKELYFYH


Experiments:
[1] = tested on: Bax-induced apoptosis in HEK293 cells; experiment: Bax-induced apoptosis in HEK293 cells (co-transfection, DAPI nuclear morphology); format: cell-based, human; details: IAP plasmid co-transfected with Bax into 293 cells; % apoptosis 24-36 hours later
Procedure: HEK293 and 293T cells were maintained in DMEM (Irvine Scientific) supplemented with 10% fetal bovine serum, 1 mM L-glutamine and antibiotics. 293 cells (10^6) were co-transfected using Superfect with 0.1 μg Green Fluoresence Protein (GFP) marker plasmid pEGFP (Clontech), 0.25 ug of either pcDNA3-Bax or pcDNA3-Fas, and 1.5 μg of either pcDNA3myc-SfIAP or pcDNA3myc-CpIAP. Alternatively, cells were co-transfected with 0.35 μg pcDNA3-caspase-9-Flag and 2.1 μg of either SfIAP or CpIAP. […] In some cases, lysates were prepared from transfected cells, normalized for total protein content, and analyzed by SDS-PAGE/immunoblotting as described (Deveraux, Q., et al., (1997) supra; Deveraux, Q. L., et al. (1998) supra; Roy, N. et al. (1997) supra; Takahashi, R., et al., (1998), supra.).
Baculoviral IAPs have been reported to protect mammalian cells from some apoptotic stimuli (Hawkins, C. J. et al., (1996) Proc. Natl. Acad. Sci. USA 93, 13786-13790; Hawkins, C. et al., (1998) Cell Death and Differentiation 5, 569-576; Uren, A. G. et al., (1996) Proc. Natl. Acad. Sci. USA 93, 4974-4978). Tests were performed to determine whether SfIAP is also capable of functioning as an apoptosis suppressor in a mammalian cell context. […]
Plasmids encoding various IAPs were co-transfected with Bax or Fas into 293 cells and % apoptosis was determined 24-36 hours later.

[2] = molecular target: T1, pro-caspase-9; experiment: GST pull-down binding of [35S]-pro-caspase-9; set-up: species or system mammalian; details: GST fusion protein on glutathione-Sepharose
Procedure: [^35S]Pro-caspase-9 was in vitro transcribed and translated in the presence of [^35S]L-methionine using TNT kit from Promega. Protein were desalted and exchanged into buffer (20 mM HEPES pH 7.5, 10 mM KCl, 1.5 mM MgCl2, 1 mM EDTA and 1 mM DTT) with Bio-spin P-6 columns (Bio-Rad). […] After incubation at 4 ° C. for 1 hour, beads were removed by centrifugation and washed twice with 0.5 ml of 50 mM Tris (pH 7.5), 150 mM NaCl, 2 mm DTT before analysis by SDS-PAGE and autoradiography.

[3] = molecular target: T2, caspase-3; experiment: Binding to recombinant purified caspase-3; set-up: species or system mammalian
Procedure: pGEX4T-1-SfIAP and pGEX4T-1 -CpIAP plasmids were introduced into E. coli strain BL21 (DE3) containing the plasmid pT-Trx. GST fusion proteins were obtained by induction with 0.05 mM IPTG at 25° C. for 8 hours, then purified using glutathione-Sepharose, essentially as described (Deveraux, Q., Welsh, K. & Reed, J. Methods of Enzymology in press). Caspases-3, and -7, containing C-terminal His6-tags, and caspase-8 containing an N-terminal His6-tag were purified as described previously (Stennicke, H. R. & Salvesen, G. S. (I1997) J. Biol. Chem. 272, 25719-25723; Stennicke, H., et al., (1998) J. Biol. Chem. 273, 27084-27090; Stennicke, H., et al., (1999) J. Biol. Chem. 274, 8359-8362). Caspase-9 lacking the CARD domain (ΔCARD-caspase-9) was constructed by truncating the cDNA and introducing a start codon substituting Val139. The resulting cDNA was subcloned into pET-23b and expressed in BL21 (DE3), yielding fully processed enzyme when cells were induced using 0.2 mM IPTG at OD600=0.6 for 4 hrs (Stennicke, H., Deveraux, Q., Humike, E., Reed, J., Dixit, V. & Salvesen, G. (1999) J. Biol. Chem. 274, 8359-8362). […] Concentrations of purified enzymes were determined from absorbance at 280 nm based on the molar absorption coefficients: caspase-3 (A280=26,000M−1 cm−1), caspase-7 (A280=24,500 M−1 cm−1), caspase-9 (A280=30,010M−1 cm−1). […]

| Molecule | suppression of Bax-induced apoptosis [1] | binding to pro-caspase-9 (autoradiography) [2] | binding to caspase-3 [3] |
| --- | --- | --- | --- |
| CpIAP: baculoviral (CpGV) inhibitor of apoptosis protein; complete ORF expressed myc-tagged or as GST-fusion (protein, left off: a dimerising Fc or GST, complete ORF expressed myc-tagged or as GST-fusion) MSDLRLEEVRLNTFEKWPVSFLSPETMAKNGFYYLGRSDEVRCAFCKVEIMRWKEGEDPAADHKKWAPQCPFVKGIDVCGSIVTTNNIQNTTTHDTIIGPAHPKYAHEAARVKSFHNWPRCMKQRPEQMADAGFFYTGYGDNTKCFYCDGGLKDWEPEDVPWEQHVRWFDRCAYVQLVKGRDYVQKVITEACVLPGENTTVSTAAPVSEPIPETKIEKEPQVEDSKLCKICYVEECIVCFVPCGHVVACAKCALSVDKCPMCRKIVTSVLKVYFS | inhibited Bax-induced apoptosis | associated with pro-caspase-9 | neither bound |
| SfIAP: cellular IAP cloned from Spodoptera frugiperda, protein of 377 amino acids (SEQ ID NO:3); GST-fusion when recombinant (protein, listed as Spodoptera frugiperda, GST fusion when recombinant; fall armyworm inhibitor of apoptosis protein (SfIAP)) MWSCSLPCWNTKKSGLQMDITKVASNGSSSTLTLFKSGSLEAKIRPLAPLMLPTPSYDSNAGSPSLSPSTPCSSSSFSIDKTDNHDTFGFSADTVDMRKEDERMKTFEKWPVSFLSGEQLARNGFYYLGRRDEARCAFCKVEIMRWVEGDDPAKDHQRWAPQCPFVRKLNGTAAADTGSSGQDECGARAAPSGTSPPRMAGPVHPRYASEAARLRSFKDWPRCMRQKPEELAEAGFFYTGQGDKTKCFYCDGGLKDWENHDVPWEQHARWFDRCAYVQLVKGREYVQKVISEACEVSASEAERDVAPARTAEPSPPAEAPENSVDDSKLCKICYAEERNVCFVPCGHVVACAKCALAADKCPMCRRTFQNAVRLYFS | inhibited Bax-induced apoptosis | associated with pro-caspase-9 | neither bound |
